Legend:
[1] = target: Aspergillus fumigatus enolase (AfEno1), recombinant His-tagged (Aspergillus fumigatus) (UniProt Q96X30); test: BLI; His-tagged AfEno1 on Ni-NTA biosensors; factor H, C4BP or plasminogen as analyte; DPBS with 0.001% gelatin, RT; association 250 s, dissociation 250 s; 1:1 model; heat inactivated regulators as non-binding control
[2] = target: T1, human C4b binding protein (C4BP) (human, UniProt P04003 49-597; P20851 18-252); test: as above; details: both partners purified
T1 construct: also called NHS-derived C4BP; plasma-derived C4BP; source: bought: CompTech (purified human C4BP); also in normal human serum (NHS); copies: 7 + 1
T1 sequence 1: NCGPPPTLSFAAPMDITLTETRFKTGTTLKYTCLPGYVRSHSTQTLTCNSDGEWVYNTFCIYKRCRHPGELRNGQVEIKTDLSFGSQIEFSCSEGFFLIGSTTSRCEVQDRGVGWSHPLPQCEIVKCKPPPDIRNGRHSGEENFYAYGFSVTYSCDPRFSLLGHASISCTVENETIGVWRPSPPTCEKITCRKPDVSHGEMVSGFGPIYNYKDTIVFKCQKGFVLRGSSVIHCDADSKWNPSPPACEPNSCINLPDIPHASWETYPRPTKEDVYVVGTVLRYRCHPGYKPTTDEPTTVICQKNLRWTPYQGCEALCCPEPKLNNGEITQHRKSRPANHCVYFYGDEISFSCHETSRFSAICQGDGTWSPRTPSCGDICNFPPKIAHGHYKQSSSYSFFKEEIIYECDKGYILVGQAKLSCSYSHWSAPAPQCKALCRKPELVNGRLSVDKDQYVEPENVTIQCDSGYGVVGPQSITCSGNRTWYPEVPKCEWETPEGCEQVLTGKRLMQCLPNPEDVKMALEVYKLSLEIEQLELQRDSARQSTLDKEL
T1 sequence 2: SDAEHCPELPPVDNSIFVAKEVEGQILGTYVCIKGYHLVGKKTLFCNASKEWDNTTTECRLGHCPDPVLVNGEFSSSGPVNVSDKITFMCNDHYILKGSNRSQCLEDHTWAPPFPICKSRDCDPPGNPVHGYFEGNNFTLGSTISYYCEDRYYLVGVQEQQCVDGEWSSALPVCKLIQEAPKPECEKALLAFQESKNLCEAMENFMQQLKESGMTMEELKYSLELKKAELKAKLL

[3] = target: T2, human factor H (human, UniProt P08603 19-1231); test: as above; details: both partners purified
T2 construct: complement factor H, human, 150-kDa plasma protein of 20 short conserved repeats (SCRs); also called NHS-derived factor H; serum-derived Factor H; source: bought: CompTech (purified human factor H); also in normal human serum (NHS)

[4] = target: T2, human factor H; test: not stated; data not shown; method and format not told

T2 sequence (P08603 19-1231): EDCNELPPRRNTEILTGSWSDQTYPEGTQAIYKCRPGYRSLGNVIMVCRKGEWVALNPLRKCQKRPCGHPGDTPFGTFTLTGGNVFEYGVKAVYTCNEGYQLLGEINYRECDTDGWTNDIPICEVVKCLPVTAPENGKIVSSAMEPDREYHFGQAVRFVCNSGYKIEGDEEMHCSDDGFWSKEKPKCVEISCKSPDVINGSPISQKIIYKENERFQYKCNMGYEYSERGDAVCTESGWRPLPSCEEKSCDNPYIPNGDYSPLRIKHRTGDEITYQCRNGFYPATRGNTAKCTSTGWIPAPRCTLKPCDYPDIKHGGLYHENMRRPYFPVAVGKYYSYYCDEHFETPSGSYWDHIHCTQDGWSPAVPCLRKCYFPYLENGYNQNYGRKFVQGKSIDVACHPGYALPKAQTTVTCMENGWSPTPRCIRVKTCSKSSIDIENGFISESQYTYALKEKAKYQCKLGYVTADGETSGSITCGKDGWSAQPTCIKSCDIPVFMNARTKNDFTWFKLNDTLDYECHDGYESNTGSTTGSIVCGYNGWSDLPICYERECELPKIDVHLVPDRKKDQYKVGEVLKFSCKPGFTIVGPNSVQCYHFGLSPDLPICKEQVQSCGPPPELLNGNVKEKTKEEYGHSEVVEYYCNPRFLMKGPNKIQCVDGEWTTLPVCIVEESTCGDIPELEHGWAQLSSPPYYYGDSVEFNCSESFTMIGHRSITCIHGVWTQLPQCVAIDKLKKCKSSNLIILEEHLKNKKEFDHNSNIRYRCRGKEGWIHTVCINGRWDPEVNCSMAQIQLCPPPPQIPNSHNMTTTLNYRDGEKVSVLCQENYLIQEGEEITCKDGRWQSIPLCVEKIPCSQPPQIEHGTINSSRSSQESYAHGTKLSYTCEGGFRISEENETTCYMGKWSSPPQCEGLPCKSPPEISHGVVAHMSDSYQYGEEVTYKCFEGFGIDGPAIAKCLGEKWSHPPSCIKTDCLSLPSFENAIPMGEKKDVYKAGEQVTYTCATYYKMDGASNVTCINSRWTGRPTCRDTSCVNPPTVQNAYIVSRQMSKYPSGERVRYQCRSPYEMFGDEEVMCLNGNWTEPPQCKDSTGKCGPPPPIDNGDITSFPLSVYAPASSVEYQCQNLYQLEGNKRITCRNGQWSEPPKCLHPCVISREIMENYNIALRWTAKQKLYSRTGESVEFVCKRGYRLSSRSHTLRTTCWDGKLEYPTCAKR

Q: Which Kd [1] does the source give for human plasminogen (natural protein) here?
A: 530 nM

B1: Aspergillus fumigatus enolase (AfEno1), recombinant His-tagged (natural protein)
chain: MPISKIHARSVYDSRGNPTVEVDVVTETGLHRAIVPSGASTGQHEAHELRDGDKTQWGGKGVLKAVKNVNETIGPALIKENIDVKDQSKVDEFLNKLDGTANKSNLGANAILGVSLAVAKAGAAEKGVPLYAHISDLAGTKKPYVLPVPFQNVLNGGSHAGGRLAFQEFMIVPDSAPSFSEALRQGAEVYQKLKALAKKKYGQSAGNVGDEGGVAPDIQTAEEALDLITEAIEQAGYTGKIKIAMDVASSEFYKADVKKYDLDFKNPESDPSKWLTYEQLADLYKSLAAKYPIVSIEDPFAEDDWEAWSYFYKTSDFQIVGDDLTVTNPGRIKKAIELKSCNALLLKVNQIGTLTESIQAAKDSYADNWGVMVSHRSGETEDVTIADIAVGLRSGQIKTGAPCRSERLAKLNQILRIEEELGENAVYAGSKFRTAVNL
notes: enolase (AfEno1, allergen Aspf22) of Aspergillus fumigatus; the gene was cloned with six His residues added at the N-terminus; Vector printed as 'pET 4.1 a'; also called Aspf22; recombinant AfEno1; source: E. coli BL21 (DE3), purified (Ni-NTA, HisTrap); not shown: His6, N-terminal, kept
Q: With B1 as the molecule, how does the Kd [2] read?
A: 131 nM

Q: And the Kd [3]?
A: 528 nM

B2: Candida albicans Pra1 (pH-regulated antigen 1) (natural protein)
chain: APVTVTRFVDASPTGYDWRADWVKGFPIDSSCNATQYNQLSTGLQEAQLLAEHARDHTLRFGSKSPFFRKYFGNETASAEVVGHFDNVVGADKSSILFLCDDLDDKCKNDGWAGYWRGSNHSDQTIICDLSFVTRRYLTQLCSSGYTVSKSKTNIFWAGDLLHRFWHLKSIGQLVIEHYADTYEEVLELAQENSTYAVRNSNSLIYYALDVYAYDVTIPGEGCNGDGTSYKKSDFSSFEDSDSGSDSGASSTASSSHQHTDSNPSATTDANSHCHTHADGEVHC
notes: pH-regulated antigen 1 (Pra1) of Candida albicans; the construct is not described; also called C. albicans Pra1
Q: With B2 as the molecule, how does the Kd [4] read?
A: 1.87 nM

From paper PMC6883375, “Enolase From Aspergillus fumigatus Is a Moonlighting Protein That Binds the Human Plasma Complement Proteins Factor H, FHL-1, C4BP, and Plasminogen” (Frontiers in Immunology, 2019)
